The values that follow come from US20190359687A1 (Bayer, published 2019).

For test [1], the target named is T1, human glycophorin A on human red blood cells or red blood cell membranes (human, UniProt P02724 20-150).
T1 construct: whole, on cells; also called hRBC; human RBC membranes
T1 sequence (looked up): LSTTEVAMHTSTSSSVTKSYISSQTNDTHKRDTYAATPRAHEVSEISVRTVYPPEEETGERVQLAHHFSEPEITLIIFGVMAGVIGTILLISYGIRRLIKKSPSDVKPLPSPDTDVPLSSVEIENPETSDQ
Kind of test: SPR (Biacore), Fab on human RBC membranes.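 Note: human RBC membranes captured on an L1 sensor chip, Fab fragments passed over as analyte, binding kinetics read by surface plasmon resonance.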 In general terms: Surface plasmon resonance follows binding to a sensor surface in real time, without labels.
Experimental: (§1) Kinetic analysis of the antibody binding to human red blood cell membranes was also performed using surface plasmon resonance (SPR) using a Biacore instrument. In this assay membranes prepared from human red blood cells were attached to a L1 sensor matrix and antibodies were flowed over the RBC membranes.
(§2) The binding kinetics of the affinity matured Fab antibodies was also measured.

Test [2] has as its target T1, human glycophorin A on human red blood …. Kind of test: SPR (Biacore), Fab on human RBC membranes; T½ = 0.69/kd.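 Note: human RBC membranes captured on an L1 sensor chip, Fab fragments passed over as analyte, binding kinetics read by surface plasmon resonance.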
Experimental: as §1, §2
Test [3] shares this target. As to the kind of experiment: SPR (Biacore), Fab on human RBC membranes; * not accurate, instrument limit.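 Note: human RBC membranes captured on an L1 sensor chip, Fab fragments passed over as analyte, binding kinetics read by surface plasmon resonance.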
Experimental: as §1, §2
Test [4] deals with T2, purified human glycophorin A protein (Sigma, cat # G5017) (human, UniProt P02724 20-150).
T2 construct: mature; also called Sigma hGPA; Sigma GPA
T2 sequence (looked up): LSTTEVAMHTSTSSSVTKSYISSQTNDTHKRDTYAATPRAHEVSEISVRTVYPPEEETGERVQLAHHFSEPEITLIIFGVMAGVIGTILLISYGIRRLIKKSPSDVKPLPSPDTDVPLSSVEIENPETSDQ
Kind of test: ELISA, IgG. Background: ELISA stands for enzyme-linked immunosorbent assay.

The target in test [5] is T3, Cynomolgus monkey glycophorin A on Cynomolgus monkey red blood cells (Cynomolgus monkey).
T3 construct: whole, on cells; also called Cyno RBC; Cyno GPA
As to the kind of experiment: FACS, RBC Cy01.
Experimental: (§3) The binding of the humanized variants to intact red blood cells (RBC) from humans (Hu01 to 03; 3 individuals), Rhesus monkey (Rh01 to 03; 3 individuals) and Cynomolgus monkey (Cy01 to 02; 2 individuals) was measured by fluorescence activated cell sorting (FACS).

Test [6] has as its target T3, Cynomolgus monkey glycophorin A on …. Kind of test: FACS, RBC Cy02. On the technique in general: Flow cytometry measures light scatter and fluorescence of single cells or particles in a stream.
Experimental: as §3
In test [7] the target is T4, human glycophorin A in the red blood cell membrane (human, UniProt P02724 20-150).
T4 construct: whole, on cells; used for intact RBC, isolated RBC membranes and transfected cells; the assay field tells which; also called GPA; hGPA
T4 sequence (looked up): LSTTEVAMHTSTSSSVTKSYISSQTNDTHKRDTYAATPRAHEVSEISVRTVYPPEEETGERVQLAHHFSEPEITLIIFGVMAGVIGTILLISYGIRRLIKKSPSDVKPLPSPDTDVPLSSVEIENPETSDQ
As to the kind of experiment: FACS, RBC Hu01.
Experimental: as §3

The target of test [8] is T4, human glycophorin A in the red blood …. Kind of test: FACS, RBC Hu02.
Experimental: as §3
Test [9] has the same target. As to the kind of experiment: FACS, RBC Hu03.
Experimental: as §3
In test [10] the target is T5, Rhesus monkey glycophorin A on Rhesus monkey red blood cells (Rhesus monkey, UniProt A0A1D5Q349 20-150).
T5 construct: whole, on cells; also called Rhesus RBC; monkey GPA
T5 sequence: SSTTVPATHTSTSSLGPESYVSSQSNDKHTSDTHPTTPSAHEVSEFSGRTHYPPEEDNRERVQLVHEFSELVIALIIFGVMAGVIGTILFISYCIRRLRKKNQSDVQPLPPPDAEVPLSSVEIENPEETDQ
Kind of test: FACS, RBC Rh01.
Experimental: as §3

Test [11] concerns the target T5, Rhesus monkey glycophorin A on Rhesus …. Kind of test: FACS, RBC Rh02.
The target is the same in test [12]. Kind of test: FACS, RBC Rh03.
Experimental: as §3
The target in test [13] is T6, Cynomolgus monkey glycophorin A on Cynomolgus monkey red blood cells or red blood cell membranes (Cynomolgus monkey).
T6 construct: whole, on cells; also called Cyno RBC; Cynomolgus monkey RBC membranes
Kind of test: Fab 7 ug/ml on intact cyno RBC, unbound Fab by ELISA; pre-dilution.
Experimental: (§4) The binding of affinity matured Fab antibodies to intact Cynomolgus monkey RBC was measured. Cynomolgus monkey RBC were isolated from fresh anti-coagulated blood by centrifugation through a ficol gradient and washing in PBS buffer. RBC diluted to 1/10th of normal hematocrit were incubated with the Fab at a final concentration of 7 ug/ml for 1 hour at room temperature on a rotating shaker after which a sample was taken and the RBC were pelleted by centrifugation and the supernatant was collected. The remaining RBC suspension was diluted 200-fold in PBS buffer and incubated for a total of 2 hours at room temperature on a rotating shaker and samples were removed at 0, 5 min, 20 min, 1 h and 2 h and the RBC pelleted and the supernatant collected. […] The amount of Fab in the supernatants was then measured using an ELISA assay and the results used to calculate the percentage of the input Fab that was bound to the RBC.

The target of test [14] is T1, human glycophorin A on human red blood …. Kind of test: Fab 7 ug/ml on intact human RBC, unbound Fab by ELISA; pre-dilution.
Test [15] has as its target T6, Cynomolgus monkey glycophorin A on …. Kind of test: Fab on intact cyno RBC, unbound Fab by ELISA; 5 min after 200-fold dilution.
The target of test [16] is T1, human glycophorin A on human red blood …. As to the kind of experiment: Fab on intact human RBC, unbound Fab by ELISA; 0 min after 200-fold dilution.
Test [17] has the same target. Kind of test: Fab on intact human RBC, unbound Fab by ELISA; 5 min after 200-fold dilution.
Test [18] addresses T6, Cynomolgus monkey glycophorin A on …. Kind of test: Fab on intact cyno RBC, unbound Fab by ELISA; 20 min after 200-fold dilution.
For test [19] the target is unchanged. Kind of test: Fab on intact cyno RBC, unbound Fab by ELISA; 60 min after 200-fold dilution.
The target of test [20] is T1, human glycophorin A on human red blood …. Kind of test: Fab on intact human RBC, unbound Fab by ELISA; 20 min after 200-fold dilution.
Experimental: (§5) The binding of affinity matured Fab antibodies to intact human RBC was also measured. Human RBC were isolated from fresh anti-coagulated normal human blood by centrifugation through a ficol gradient and washing in PBS buffer. RBC diluted to 1/10th of normal hematocrit were incubated with purified Fab antibodies at a final concentration of 7 ug/ml for 1 hour at room temperature on a rotating shaker after which a sample was taken and the RBC were pelleted by centrifugation and the supernatant was collected. The remaining RBC suspension was diluted 200-fold in PBS buffer and incubated for a total of 2 hours at room temperature on a rotating shaker and samples were removed at 0, 5 min, 20 min, 1 h and 2 h and the RBC pelleted and the supernatant collected. The amount of Fab in the supernatants was then measured using an ELISA assay and the results used to calculate the percentage of the input Fab that was bound to the RBC. […] The percentage that remains bound after 200-fold dilution of the RBC suspension is an indication of the overall strength of the binding to human RBC.
For test [21] the target is unchanged. Kind of test: Fab on intact human RBC, unbound Fab by ELISA; 60 min after 200-fold dilution.
Experimental: as §5
For test [22], the target named is T6, Cynomolgus monkey glycophorin A on …. As to the kind of experiment: Fab on intact cyno RBC, unbound Fab by ELISA; 120 min after 200-fold dilution.
Experimental: as §4
The target of test [23] is T1, human glycophorin A on human red blood …. Kind of test: Fab on intact human RBC, unbound Fab by ELISA; 120 min after 200-fold dilution.

In general, Kd refers to the equilibrium constant for the complex coming apart. By koff is commonly meant the rate constant with which the complex falls apart. For orientation: kon means the second-order rate constant of association. The term EC50 denotes the concentration that produces a half-maximal response.

B1: TPP-7776, affinity matured 6C12 Fab (Fab, V domains shown)
VH: EVQLVQSGAEVKKPGASVKVSCKASGYTFTTYAIHWVRQAPGQGLEWMGYINPSSGYTRYNPKFKGRVTMTRDKSTSTAYMELRSLRSDDTAVYYCQTGTRDYWGQGTTVTVSS
VL: DIQLTQSPSFLSASVGDRVTITCRASSSVRYIYWFQQKPGKAPKLLIYATSTLRSGVPSRFSGSGSGTEYTLTISSLQPEDFATYYCHQRNSFPYTFGQGTKLEIK
notes: Tested as Fab
In test [1], B1 had an equilibrium dissociation constant (Kd) of 0.0829 nM and an off-rate constant (koff) of 0.00097 s⁻¹. Moreover, the “Estimated T½” value in test [2] was 12 min. Also, in test [3], the kon was found to be 1.17e+07 M⁻¹ s⁻¹.

B2: TPP-7789, affinity matured 6C12 Fab (Fab, V domains shown)
VH: EVQLVQSGAEVKKPGASVKVSCKASGYTFTTYTIHWVRQAPGQGLEWMGYINPSSGYTRYNPKFKHRVTMTRDKSTSTAYMELRSLRSDDTAVYYCWTGTRDYWGQGTTVTVSS
VL: DIQLTQSPSFLSASVGDRVTITCRASSSVRYIYWFQQKPGKAPKLLIYATSTLQSGVPSRFSGSGSGTEYTLTISSLQPEDFATYYCHQRNSFPYTFGQGTKLEIK
notes: Tested as Fab
In test [1], B2 returned an equilibrium dissociation constant (Kd) of 0.00799 nM and a koff of 0.000128 s⁻¹. Moreover, the “Estimated T½” value in test [2] was 90 min. The same molecule yielded a kon in [3] of 1.61e+07 M⁻¹ s⁻¹.

B3: TPP-7777, affinity matured 6C12 Fab (Fab, V domains shown)
VH: EVQLVQSGAEVKKPGASVKVSCKASGYTFTTYTIHWVRQAPGQGLEWMGYINPSSGWTRYNPKFKGRVTMTRDKSTSTAYMELRSLRSDDTAVYYCWTGRRDYWGQGTTVTVSS
VL: DIQLTQSPSFLSASVGDRVTITCRASSSVSYIYWFQQKPGKAPKLLIYATSTRQSGVPSRFSGSGSGTEYTLTISSLQPEDFATYYCHQRNSFPYTFGQGTKLEIK
notes: Tested as Fab
In test [1], B3 returned a dissociation constant Kd of 0.0499 nM, a koff of 0.000371 s⁻¹ and a kon of 7.44e+06 M⁻¹ s⁻¹. Further, the “Estimated T½” value in [2] was 31 min.

B4: TPP-7788, affinity matured 6C12 Fab (Fab, V domains shown)
VH: EVQLVQSGAEVKKPGASVKVSCKASGYTFTTYTIHWVRQAPGQGLEWMGYINPKSGWTRYNPKFKGRVTMTRDKSTSTAYMELRSLRSDDTAVYYCQTGTRDYWGQGTTVTVSS
VL: DIQLTQSPSFLSASVGDRVTITCRASSSVSYIYWFQQKPGKAPKLLIYATSFRQSGVPSRFSGSGSGTEYTLTISSLQPEDFATYYCHQRNSFPYTFGQGTKLEIK
notes: Tested as Fab
In the case of B4, in test [1], the affinity, expressed as Kd, was 0.136 nM; the off-rate constant (koff) was determined as 0.000413 s⁻¹; the on-rate constant (kon) was 3.03e+06 M⁻¹ s⁻¹. The “Estimated T½” value in [2] was 28 min.

B5: Hu6C12-22 (antibody, V domains shown)
VH: EVQLVQSGAEVKKPGASVKVSCKASGYTFTTYTIHWVRQAPGQGLEWMGYINPSSDYTRYNPKFKDRVTLTTDTSTSTAYMELRSLRSDDTAVYYCATGTRDYWGQGTTVTVSS
VL: DIQLTQSPSFLSASVGDRVTITCSAASSVSYIYWFQQKPGKAPKLLIYSTSTLPSGVPSRFSGSGSGTEYTLTISSLQPEDFATYYCHQRNSFPFTFGQGTKLEIK
notes: IgG format; VH.1e + Vk.1b
B5 came in with an EC50 in test [4] of 0.886 nM. Moreover, the fluorescence intensity in test [5] stood at 991; in test [6] it was 1170; in test [7], 1570; in test [8] it was 1170; in test [9], 1330; in test [10] it was 1530. Moreover, the fluorescence intensity amounted to 1490 in test [11] and 1450 in test [12].

B6: Hu6C12-24 (antibody, V domains shown)
VH: EVQLVQSGAEVKKPGASVKVSCKASGYTFTTYTIHWVRQAPGQGLEWIGYINPSSDYTRYNPKFKDRVTLTTDKSTSTAYMELRSLRSDDTAVYYCQTGTRDYWGQGTTVTVSS
VL: DIQLTQSPSFLSASVGDRVTITCSAASSVSYIYWFQQKPGKAPKLLIYSTSTLPSGVPSRFSGSGSGTEYTLTISSLQPEDFATYYCHQRNSFPFTFGQGTKLEIK
notes: IgG format; VH.1g + Vk.1b
With B6, the concentration for a half-maximal effect (EC50) in test [4] was found to be 0.282 nM. The fluorescence intensity in test [5] was 1660; in [6] it was 1770; in [7], 2250; in [8], 1850; in test [9], 2100; in test [10], 2330. Also, the results for the fluorescence intensity in [11] and in [12] were 2540 and 2370, respectively.

B7: TPP-7787, affinity matured 6C12 Fab (Fab, V domains shown)
VH: EVQLVQSGAEVKKPGASVKVSCKASGYTFTTYAIHWVRQAPGQGLEWMGYINPSSGYTRYNPKFKGRVTMTRDKSTSTAYMELRSLRSDDTAVYYCWTGTRDYWGQGTTVTVSS
VL: DIQLTQSPSFLSASVGDRVTITCRASSSVSYIYWFQQKPGKAPKLLIYATSTRQSGVPSRFSGSGSGTEYTLTISSLQPEDFATYYCHQRNSFPYTFGQGTKLEIK
notes: Tested as Fab
In test [1], B7 returned a dissociation constant Kd of 0.0222 nM, a koff of 0.000139 s⁻¹ and a kon of 6.25e+06 M⁻¹ s⁻¹. In addition, the “Estimated T½” value in test [2] was 83 min.

B8: Hu6C12-23 (antibody, V domains shown)
VH: EVQLVQSGAEVKKPGASVKVSCKASGYTFTTYTIHWVRQAPGQGLEWMGYINPSSDYTRYNPKFKDRVTLTTDTSTSTAYMELRSLRSDDTAVYYCQTGTRDYWGQGTTVTVSS
VL: DIQLTQSPSFLSASVGDRVTITCSAASSVSYIYWFQQKPGKAPKLLIYSTSTLPSGVPSRFSGSGSGTEYTLTISSLQPEDFATYYCHQRNSFPFTFGQGTKLEIK
notes: IgG format; VH.1f + Vk.1b
Molecule B8 displayed a concentration for a half-maximal effect (EC50) in [4] of 0.374 nM. The fluorescence intensity in [5] was 1140; in test [6], 1320; in test [7], 1680; in test [8] it was 1300; in test [9], 1460; in [10], 1710. For the same molecule, the fluorescence intensity was 1680 in [11] and 1700 in test [12].

B9: TPP-7795, affinity matured 6C12 Fab (Fab, V domains shown)
VH: EVQLVQSGAEVKKPGASVKVSCKASGYTFTTYTIHWVRQAPGQGLEWMGYINPKSGWTRYNPKFKGRVTMTRDKSTSTAYMELRSLRSDDTAVYYCQTGTRDYWGQGTTVTVSS
VL: DIQLTQSPSFLSASVGDRVTITCRASSSVSYIYWFQQKPGKAPKLLIYATSFLQSGVPSRFSGSGSGTEYTLTISSLQPEDFATYYCHQRNSFPYTFGQGTKLEIK
notes: Tested as Fab
For B9, the “percentage of input antibody bound” value in test [13] worked out at 73%; in test [14] it was 95%; in [15], 51%; in test [16], 86%; in test [17], 74%; in test [18], 39%. The “percentage of input antibody bound” value in [19] worked out at 29%; in test [20], 63%; in test [21], 63%; in test [22], 22%; in test [23], 63%.
